In patent publication US20230348573A1 (KEIO UNIVERSITY, published 2023):

Assays:
[1] = biological target: T1, RBD derived from SARS-CoV-2 (Wuhan strain) (SARS-CoV-2 (Wuhan strain), UniProt P0DTC2 319-541); assay: RBD beads, antibody 1 µg/mL, then labelled ACE2, flow cytometry
T1 construct: domain: RBD

[2] = biological target: T1, RBD derived from SARS-CoV-2 (Wuhan …); assay: RBD beads, antibody 4 µg/mL, then labelled ACE2, flow cytometry
[3] = biological target: T2, full-length spike protein of SARS-CoV-2 (Wuhan strain) (SARS-CoV-2 (Wuhan strain), UniProt P0DTC2 14-1273); assay: ACE2 competition, spike on 293T cells, antibody 4 µg/mL
T2 construct: whole, on cells; Expressed in 293T cells

[4] = biological target: spike protein of SARS-CoV-2 (Wuhan strain) on pseudovirus (SARS-CoV-2 (Wuhan strain), UniProt P0DTC2 14-1254); assay: cell-based or functional assay
[5] = biological target: T2, full-length spike protein of SARS-CoV-2 …; assay: ACE2 competition, 293T cells, antibody 4 µg/mL
[6] = biological target: T1, RBD derived from SARS-CoV-2 (Wuhan …); assay: RBD beads, antibody 0.25 µg/mL, then labelled ACE2, flow cytometry
[7] = biological target: T1, RBD derived from SARS-CoV-2 (Wuhan …); assay: BLI (Octet), RBD of the Wuhan strain

Binder | fluorescence of ACE2 protein [1] | fluorescence of ACE2 protein [2] | binding amount (%) of ACE2 protein [3] | IC50 of pseudovirus infection (luciferase) [4] | ACE2 binding (no antibody = 100) [5] | fluorescence of ACE2 protein [6] | Kd [7]
Ab496 (antibody, V domains shown) VH: EVQLVQSGPEVKKPGTSVKVSCKASGFIFTNSAVQWVRQARGQRLEWIGWIVVGSGNPNYAQKFQERVTITRDRSTSTAYMELSSLTSEDTAVYYCAAFPYYYDNSGSGPWGQGTLVTVSS VL: DIQLTQSPSSLSASVGDRVTITCQASQDIRNNLNWYQQIPGKAPKLLIYDASNLETGVPSRFSGSASGTDFTFTISSLQPEDVATYYCQQYANLPPFTFGPGTKVDIK | 129 | 41.7 | 1.8% | 0.00362 µg/mL | 1.8 | 2580 | 
Ab159 (antibody, V domains shown) VH: QVQLVESGGGLVKPGGSLRLSCAASGFTFNNAWMSWVRQAPGKGLEWVGRIKSKTDGGTTDYAAPVKGRFTFSRDDSKNTLYLQMSSLKTEDTALYYCTTADYDILTGTPASPYWGQGTLVTVSS VL: DIQMTQSPSSLSASVGDRVTITCRASQSITNYLNWYQQKPGKAPKFLIYAASSLQGGVPSRFRGSGSGTDFTLTISSLQPEDFATYYCQQTYSTLWTFGQGTKVEIK | 114 | 78.3 | 0.5% | 0.00852 µg/mL |  | 486 | 1.24 nM
Ab188 (antibody, V domains shown) VH: EVQLVESGGGLVQPGGSLRLSCAASGFTFINYKMNWVRQAPGKGLEWVSYISSGSDAIYYADSVKGRFTISRDNAKNSLYLQMNSLRDEDTALYYCARGGGYNYGECMDVWGQGTTVTVSS VL: not shown |  | 148 | 1.1% | 0.119 µg/mL | 2.1 | 1570 | 
Ab709TK (antibody, V domains shown) VH: QVQLVESGGGVVQPGKSLRLSCAASGFTFSSYAMHWVRLAPGKGLEWVAVISPDGKNKYYVDSVKGRSTISRDNSKNTLYLLMNSLRAEDTAVYYCATTQSLWFGQFYYIYGMDVWGQGTTVTVSS VL: QSVLTQPHSVSESPGKTITISCTGSSGSIASNYVQWYQQRPGSAPTTVIYEDTERPSGVPDRFSGSIDSSSNSASLTISGLKTEDEADYYCQSYDSNNVVFGGGTKLTVL |  |  | 0.6% | 0.0717 µg/mL |  |  | 
Ab712 (antibody, V domains shown) VH: QVQLVQSGSELKKPGASVKISCKASGYTFINHAINWVRQAPGQGLEWMGWINTNTGNPTYAPGFTGRFVFSLDTSVSTAYLQISSLKAEDTAVYYCARIPIRDYDYDGSGYYYFLDYWGQGTLVTVSS VL: SYELTQDPAVSVALGQTVRITCQGDSLRSSSASWYQQKPGQAPVLVIYGKTNRPSGIPDRFSGSSSGNTASLTITGAQAEDEADYYCNSRDNSGNHPVVFGGGTKLTVL |  |  | 4.6% | 0.105 µg/mL |  |  | 
Ab765 (antibody, V domains shown) VH: QVQLVESGGGVVQPGRSLRLSCAASGFTFSDYAIHWVRQAPGRGLEPVALISYDGNNKYYADSVKGRFTISRDNSKNVLYLQMNSLRADDTAVYYCARDAEGGWVAALDYWGQGTLVTVSS VL: QSALTQPRSVSGSPGQSVTISCTGTSSDVGGYNYVSWYQHHPGKAPKVMIYEVSKRPSGVPDRFSGSKSGTTASLTISGLQAEDEADYYCCSYAGTYPYVFGTGTKVTVL |  |  | 0.9% | 0.005 µg/mL |  |  | 
Ab803 (antibody, V domains shown) VH: EVQLVESGGGLVQPGRSLRVSCAASGFTFDDYAMHWVRQTPRKGLEWVAGISRNSAAIAYADSVKGRFTISRDNAKNSVFLQMNGLRADDTALYYCVKSPRYGWGSPDYSFDFWGRGTLVTVSS VL: DIQLTQSPSSLSASVGDRVTITCRASQNIGTYLNWYQQEPGKAPKLLIYAASSLQSGVPSRFSGSGSGTDFTLTISSLQPEDFATYCCQQSFTTPLTFGQGTKVEIK |  |  | 0.9% | 0.0468 µg/mL |  |  | 
Ab816 (antibody, V domains shown) VH: QVQLVQSGAEVKKPGESLMISCKASGYNFRNYWIAWVRQMPGKGLEWMGIIHPGDSDIRYRPSLQGHVTISADKSITTAYLQWGSLKASDTAMYYCTRITTDADSSGLFHYWGQGTLVTVSS VL: EIVLTQSPSTLSASVGDRVTITCRASQNIYTWLAWYQRKPGKAPKVLIYKASSLESGVPSRFSGSGSGTEFTLTISSLQPDDFATYYCQQYKSAWSFGQGTKVEIK |  |  | 0.3% | 0.023 µg/mL |  |  | 
Ab830 (antibody, V domains shown) VH: QVQLVQSGAEVKKPGSSVKVSCKTSGGTFTNYTISWVRQAPGQGLEWMGRIIPIFDIVNYAQKFQGRVTITADKSTSTTYMELSSLRSEDTAVYYCARDGVLYDTSGYLYDAFDIWGQGTMVTVSS VL: DIQMTQSPSSLSASVGDRVTITCRASQGINNYLAWFQQKPGKAPKSLIYAASSLQSGVPPKFSGSGSGTDFTLTISSLQPEDFATYYCLHYNSYPWTFGQGTKVEIK |  |  | 0.9% | 0.0349 µg/mL |  |  | 
Ab847 (antibody, V domains shown) VH: EVQLVQSGAEVKKPGASVKVSCKASGYTFTSYDIIWVRQATGQGLEWMGWMDPSRGTTGYAQTFQGRVTMTRDTSISTAYLELNSLTSEDTAVYYCVAHIVVLDRWFDPWGQGTLVTVSS VL: DIVMTQSPSSLSASVGDRVTITCQASQDIGNFLNWCQQKPGQAPKVLIYGASNLETGVPSRFSGSGSGTDFTFTISSLQPEDIATYYCQHYDNFPPRFTFGQGTKLDIK |  |  | 0.3% | 0.0403 µg/mL |  |  | 
Ab864 (antibody, V domains shown) VH: EVQLVESGGGLVQPGRSLRLSCAASGFTFDDYAMHWVRQVPGKGLEWVSGISWNKGNIDYADSVKGRFTISRDNAKNSLYLQMNSLRPEDTGLYYCAKDCHYDSPGYFPNCLHSWGQGTLVTVSS VL: EIVMTQSPSSLSASVGDRVTITCRASQGINTYLAWYQQKPGKAPKLLIYTASTLQSGVPSRFSGSGSGTDFTLTISSLQPEDFATYYCQQVHSYPLTFGGGTKVEIK |  |  | 0.4% | 0.0084 µg/mL |  |  | 3.9 nM
Ab376 (antibody, V domains shown) VH: EVQLVESGGGLVQPGGSLRLSCEASEFTLNSHYMNWVRQAPGKGLEWVSVIYSSGSTYYADSVKGRFTISRHNSKDTLYLQMNSLKPEDTAVYYCARPNYGGNSIWYFDLWGRGTLVTVSS VL: DIQMTQSPSSVSASVGDRVTITCRASQGIGSWLAWYQQTPGKAPKLLIYAASSLQSGVPSRFSGSGSGTDFTLTISSLQPEDFATYYCQQANSFPLTFGGGTKVEIK | 134 | 45 | 5.1% |  |  | 445 | 0.11 nM
Ab336 (antibody, V domains shown) VH: QVQLQQSGPGLVKPSETLSLTCTVSGGSISSYYWTWIRQPPGKGLEWIAYISYSGSTNYNPSLRSRVTISVDTSKNQFSLKLSSVTAADTAVYYCARDYYYDNSGYPDSYYGMDVWGQGTTVTVSS VL: DIQLTQSPSTLSASVGDRVTITCRASQRISSWLAWYQQKPGKAPKLLIYKASTLQSGVPSRFSGSGSGTEFTLTISSLQPDDFATYYCQQYNSFSWTFGQGTKVEIK | 402 | 106 | 5.3% |  | 1 | 1110 | 2.35 nM
Ab445 (antibody, V domains shown) VH: EVQLVESGGGVVQPGTSPRLSCAASGFTFSNSGMHWVRQAPGKGLEWVAVIWYDGSKKYYVDSVKGRFTISRDNSKNTLYLQMNSLRAEDTAVYYCARDGTVAVRGVMNPFFDYWGQGTLVTVSS VL: DIQLTQSPSSLSASVGDRVTITCQASQDISNYLNWYQQIPGKAPKLLIYDASNLETGVPSRFSGSGSGTDFTFTISSLQPEDIATYYCQQYDNLPYTFGQGTKLEIK | 326 | 142 | 0.4% |  | 0.4 | 2200 | 0.0593 nM
Ab369 (antibody, V domains shown) VH: QVQLVQSGAEVKKPGASVKVSCKASGYTLTNRAIHWVRQAPGQRLEWMGWINAGKGNTKYSQKFQGRVTITRDTSASTAYMELSSLKSEDTAFYYCATGDGYNYGYDSWGQGTLVTVSS VL: NFMLTQPPSVSVAPGKTARISCGGTNIGSKSVHWYQQKPGQAPVLVVHDDSDRPSGIPERFSASNSGNTATLTISRVEAGDEADYYCQVWDSTSDLPEVVFGGGTKLTVL | 430 | 107 | 4.1% |  |  | 1640 | 0.197 nM
Ab287 (antibody, V domains shown) VH: QVQLVQSGAEVKKPGSSVKVSCKASGDTFSSYAISWVRQAPGQGLEWMGRIILIFGVANYAQKFQGRVTITADKSTSTAYMELSSLRSEDTAVYYCARGGFYYDSSGYHLDYWGQGTLVTVSS VL: EIVLTQSPGTLSLSPGERATLSCRPSQSVSSSYLAWYQQRPGQAPRLLIYGASSRATGIPDRFSGSGSGTDFTLTISRLEPEDFAVYYCHQYGSSPRTFGQGTKVEIK | 105 | 32.6 | 1.5% |  | 0.5 | 689 | 
